This is an account of results in patent US10975142B2, “Endotrophin neutralization and use thereof” (THE BOARD OF REGENTS OF THE UNIVERSITY OF TEXAS SYSTEM, priority 2013, dated 2021).

What all share (assay type): in vivo, mouse
In test [1] the test system is endotrophin+-tumors. In words: allografts of Ctrl- and endotrophin+-cancer cells in wild-type hosts, TZD and cisplatin. Particulars: cisplatin 1 mg/kg ip. every 5 days, TZD 20 mg/kg or ND. As for the experimental part:
FIGS. 21A-21F. TZD synergizes cisplatin sensitivity through suppression of endotrophin-mediated EMT, fibrosis and vasculature. FIGS. 21A-21B. Schematic diagram for allografts (FIG. 21A), indicating cancer cells (0.5×10^6 cells/mouse) were isolated from tumors in PyMT (Ctrl) and PyMT/endotrophin (ETP) mice and implanted into wild-type hosts. Host mice were given TZD (20 mg/kg) or ND diet at 10 days before implantation for tumor progression. Cisplatin (1 mg/kg, ip., every 5 days) was administered at 3-weeks post implantation. […] Data represent mean±SD (n=8-9/group). *p=0.05, **p=0.01 and ***p=0.001 Ctrl/ND vs. ETP/ND; ^##p=0.01 and ^###p=0.001 ETP/ND vs. ETP/TZD by unpaired student t-test. FIGS. 21C-21F. Histological analysis of tumors in allografts after cisplatin treatment. […] Vimentin staining quantification (FIG. 21D), showing decreased EMT in both Ctrl- and endotrophin^+-tumors by TZD. ***p<0.0001 and ^###p<0.0001. Quantification of perfused lectin staining (FIG. 21E), showing the increased functional blood vessels in endotrophin^+-tumors was decreased by TZD. *p=0.015, **p=0.001 and ^##p=0.0088. Masson's Trichrome C staining quantification (FIG. 21F), showing increased fibrosis in endotrophin^+-tumors was decreased by TZD. ***p<0.0001 and ^##p=0.0013. […] Statistics (*Ctrl/ND/CIS vs. Ctrl/TZD/CIS or ETP/ND/CIS; ^#ETP/ND/CIS vs. ETP/TZD/CIS) were analyzed by unpaired student t-test. […]

Test [2] deals with endotrophin+-tumors. The experiment in a line: allografts of tumor pieces (Ctrl-tumor, ETP+-tumor) in wild-type hosts, cisplatin. Particulars: cisplatin 1 mg/kg, ip. twice a week. On the procedure: FIGS. 20A-20C. Endotrophin overexpression confers cisplatin resistance in PyMT mice. FIG. 20A. 10-weeks-aged PyMT and PyMT/endotrophin (PyMT/ETP) mice were given high dosage of cisplatin (2.5 mg/kg, ip., 2 times/week). Tumor growth was determined by caliper measurements. Data represent mean±SD (n=7-10/group). ***p<0.001, PyMT/CIS vs. PyMT/ETP/CIS by 2-way ANOVA. FIGS. 20B-20C. A piece of tumors taken from PyMT (Ctrl-tumor) and PyMT/endotrophin (ETP^+-tumor) mice were implanted into isogenic wild-type hosts. Cisplatin (1 mg/kg, ip., 2 times/week) were injected at 3-weeks post implantation for tumor progression. Tumor volume was determined by caliper measurement. […] Data represent mean±SD (n=7-8/group). *p<0.05 vs. Ctrl-tumors by 2-way ANOVA. Representative images were taken at 70-days post implantation. Scale: 10 mm.

Test [3] deals with ETP+-cancer cells. In words: allograft of FP635/ETP+-cancer cells in Matrigel plug with or without 10B6. On the procedure:
FIGS. 8A-8I: 10B6 blocks ETP-mediated stromal expansion in vivo. (FIG. 8A) 10B6 (200 μg/mouse) was i.p. injected twice weekly into PyMT mice from 9 to 13 weeks of age. Tumor growth (mean±SEM; n=4-6 per group) was determined by weekly caliper measurements. *P<0.05, **P<0.01, ***P<0.001 vs. IgG control, 2-way ANOVA. (FIG. 8B) Primary mammary epithelial cancer cells were isolated from 12-week-old FP635/PyMT and FP635/PyMT/ETP mice and implanted into WT recipients with the same volume of Matrigel. For the 10B6 group, 10B6 was added in a Matrigel plug (10 μg/plug) admixed with ETP^+-cancer cells (i.e., ETP^+/10B6). A representative whole-body image was acquired 25 days after implantation using IVIS fluorescence scanner. Artificial color indicates fluorescence signal intensity accounts for tumor volume (AU). Quantitative results are represented as mean±SEM (n=3 per group). *P<0.05, unpaired t test. (FIGS. 8C-8I) 6 weeks after implantation, tumor tissues were excised from Ctrl-, ETP^+-, and ETP^+/10B6-cancer cells allografted mice and stained for H&E (FIG. 8C), Masson's Trichrome C (FIG. 8D), α-SMA (FIG. 8E), FSP-1 (FIG. 8F), CD31 (FIG. 8G), F4/80 (FIG. 8H), and Ki67 (FIG. 8I). Quantified results in FIGS. 8D-8I are mean±SEM (multiple images, n=3 per group). *P<0.05, **P<0.01, unpaired t test. Scale bars: 50 μm. (FIG. 8J) Working model for ETP in mammary tumor progression.
Isolation of mammary epithelial cancer cells and implantation procedures were as previously described. Tumor growth was monitored once weekly beginning 2 weeks after implantation.

Entries after “also recorded” stand apart in the source; their conditions may differ.

With `N.N.[Cl][Pt][Cl]` [cisplatin, cis-diammine-dichloro-platinum], the “tumor growth (volume) of endotrophin+-tumors” value in test [1] was “more resistant”. For the same molecule, the “response of endotrophin+-tumors compared to control (Ctrl)-tumors” value in test [2] is “more resistant; also recorded: increased cisplatin resistance”.

B1: 10B6: rat anti-mouse endotrophin monoclonal antibody; light chain variable SEQ ID NO: 2, heavy chain variable SEQ ID NO: 4 (antibody, V domains shown)
VH: QVQLQQSGPELAKPGSSVKISCKASGYTFTSYEMHWIKQRPGQGLEWIGYIYPESGSTGYNEKFKGKATLTVDKSSPTAYMQLSSLTPDNSAVYFCTRGLRVLGYVMDVWGHGTSVTVSS
VL: DVQLTQSPSFLSASVGDRVTINCKASQNINKYLNWYQQKLGEAPKRLIYNTNNLQTGIPSRFSGSASGTDYTLTISSLHPEDFATYFCLQHSSLYTFGAGTKLELK
B1: the tumor regression entry in test [3] (6 weeks after implantation) was “triggered tumor regression”. Further, the “ETP+-cancer cell growth (fluorescence imaging)” value in test [3] (10B6 10 μg/plug) is “effectively attenuated”. Further, the “ETP-mediated tumor stromal expansion” value in test [3] (H&E, 6 weeks after implantation) was “inhibited”. Besides, the “ETP-mediated increase in fibrosis and stromal expansion” value in test [3] (Masson's Trichrome C, α-SMA, FSP-1, CD31, F4/80) is recorded as “completely blocked”.
